Results on 3 molecules are retold here after patent US7071300 (dated 2006).

Assay [1] has as its target T1, IGF-1 (human, UniProt P05019). As to the kind of experiment: competition, 125I-IGF-1 binding to MCF-7 cells.
Assay [2] addresses T1, IGF-1. Kind of assay: competition, IGF-1 phage binding to IGFBP-3.
The target of assay [3] is T1, IGF-1. As to the kind of experiment: competition, IGF-1 phage binding to IGFBP-1.

T1 sequence (P05019 49-118): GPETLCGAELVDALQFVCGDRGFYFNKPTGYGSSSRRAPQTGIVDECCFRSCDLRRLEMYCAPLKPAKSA

B1: F1-3 (peptide)
chain: FECLTSVEALRGCMYG
Take B1: the IC50 is 45.7 µM with IGF-1 [1], 12.8 µM with IGF-1 [2] and 11.7 µM with IGF-1 [3].

B2: F1-2 (peptide)
chain: MDCLASVEALKWCMYG
With B2, the IC50 with IGF-1 [1] was found to be 15.3 µM; in the assay with IGF-1 [2], 9.2 µM; in the assay with IGF-1 [3], 15.5 µM.

B3: F1-1 (peptide)
chain: RNCFESVAALRRCMYG
For the molecule B3, the IC50 in the assay with IGF-1 [1] came out at 5.12 µM; in the assay with IGF-1 [2], 2.93 µM; in the assay with IGF-1 [3], 1.4 µM.

The term IC50 denotes the concentration at which inhibition is half-maximal. A higher IC50 goes with weaker potency in that assay.
